T1: recombinant soluble MD-2 purified from baculovirus-infected insect cell supernatants (Homo sapiens (Human), UniProt Q9Y6Y9 19-160)
T1 construct: not shown: C-terminal FLAG and 6xHIS tags
T1 chain: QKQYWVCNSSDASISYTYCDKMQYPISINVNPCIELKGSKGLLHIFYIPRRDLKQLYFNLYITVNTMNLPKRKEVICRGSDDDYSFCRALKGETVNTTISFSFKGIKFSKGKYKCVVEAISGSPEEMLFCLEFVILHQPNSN

T2: human MD-2 expressed in transfected HEK 293 cells (human, UniProt Q9Y6Y9 19-160)
T2 construct: also called MD-2 alone; wt MD-2
T2 chain: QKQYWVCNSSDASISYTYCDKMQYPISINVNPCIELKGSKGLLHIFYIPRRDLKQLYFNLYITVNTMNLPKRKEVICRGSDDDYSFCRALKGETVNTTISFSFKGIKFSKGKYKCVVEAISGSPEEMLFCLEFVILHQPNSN


Columns and labels:
[1] = biological target: T1, recombinant soluble MD-2 purified from …; assay: direct ELISA, MD-2 coated at 5 µg/ml
Method: Recombinant soluble MD-2 with C terminal FLAG and histidine epitope tags was coated at a concentration of 5 μg/ml in 50 μl PBS on ELISA plates (Nunc Maxisorp). Wells were blocked with 200 μl PBS 2% BSA and subsequently incubated with the appropriate MAb at the indicated concentration in PBS 1% BSA. Following 3 wash steps with PBS 0.05% Tween 20, 50 μl HRP conjugated goat anti-mouse IgG (H+L) at a 1:5000 dilution was added to the wells. […] Plates were read at a wavelength of 650 nm.
Using direct ELISA, no binding of mu18H10 to recombinant soluble MD-2 generated with the baculovirus expression system was detected (FIG. 5a).

[2] = biological target: T3, human TLR4/MD-2 receptor complex expressed on transfected cells (human, UniProt O00206 24-839; Q9Y6Y9 19-160); assay: flow cytometry, mock transfected vs TLR4/MD-2 transfected cells
T3 construct: Tags differ by cell line: CHO-K1: N-terminal c-myc on TLR4, C-terminal c-Myc and Protein C on MD-2; also called TLR4/MD-2 complex; hTLR4/MD-2
Target sequence in this assay (O00206 24-839 limits assumed, chain 1 of 2, one chain of several): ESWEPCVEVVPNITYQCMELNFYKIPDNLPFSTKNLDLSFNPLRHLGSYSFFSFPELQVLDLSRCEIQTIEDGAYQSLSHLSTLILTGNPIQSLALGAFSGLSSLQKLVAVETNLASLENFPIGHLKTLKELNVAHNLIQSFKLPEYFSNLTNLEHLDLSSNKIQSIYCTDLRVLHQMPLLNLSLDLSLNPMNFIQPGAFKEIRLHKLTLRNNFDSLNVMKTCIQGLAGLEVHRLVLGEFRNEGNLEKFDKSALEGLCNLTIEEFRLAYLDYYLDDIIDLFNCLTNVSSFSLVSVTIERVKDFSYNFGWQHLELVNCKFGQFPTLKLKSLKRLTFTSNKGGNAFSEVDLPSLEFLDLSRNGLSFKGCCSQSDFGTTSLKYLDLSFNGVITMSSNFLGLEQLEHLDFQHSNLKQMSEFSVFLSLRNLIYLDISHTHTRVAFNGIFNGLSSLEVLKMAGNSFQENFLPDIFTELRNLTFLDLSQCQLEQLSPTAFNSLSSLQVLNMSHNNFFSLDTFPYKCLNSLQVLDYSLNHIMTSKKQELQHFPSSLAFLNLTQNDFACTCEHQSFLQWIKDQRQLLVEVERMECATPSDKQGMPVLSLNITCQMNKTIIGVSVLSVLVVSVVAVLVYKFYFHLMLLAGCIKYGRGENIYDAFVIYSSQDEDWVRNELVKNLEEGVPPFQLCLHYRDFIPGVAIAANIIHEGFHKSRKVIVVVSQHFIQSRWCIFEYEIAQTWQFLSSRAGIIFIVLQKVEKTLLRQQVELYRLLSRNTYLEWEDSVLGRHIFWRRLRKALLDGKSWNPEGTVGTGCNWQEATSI

[3] = biological target: T2, human MD-2 expressed in transfected HEK …; assay: sandwich ELISA, capture on anti-FLAG M2, biotinylated mu18H10
Method: For sample preparation, HEK 293 cells were transfected with the appropriate plasmid constructs using the Fugene 6™ transfection reagent as described in paragraph G above. 48 hours post-transfection, cells were collected and cleared by centrifugation. Cells were subsequently incubated with biotinylated mu18H10 (10 μg/ml) and lysed in 20 mM Tris pH 7.4, 150 mM NaCl, 1% NP40 containing COMPLETE™ protease inhibitors (Roche).
To perform the sandwich ELISA, Nunc maxisorp plate wells were coated with 50 μl of the anti-FLAG™ M2 MAb (Sigma) at a concentration of 5 μg/ml in PBS. Wells were blocked with 200 μl PBS 2% BSA and subsequently incubated with 50 μl of the appropriate samples at the indicated dilution. Wells were washed three times with 200 μl PBS 0.05% Tween 20 and incubated with 50 μl of the appropriate antibody (10 μg/ml for biotinylated mu18H10 and 12D4, 1 μg/ml for the polyclonal […]). Following a wash step as above, wells were incubated with 50 μl of the appropriate detection antibody (HRP conjugated streptavidin at a dilution of 1:1500 for the biotinylated MAbs and HRP conjugated anti-rabbit IgG (H+L) at a dilution of 1:5000 for the polyclonal rabbit Ab). […] Plates were read at a wavelength of 650 nm.

[4] = biological target: T3, human TLR4/MD-2 receptor complex …; assay: flow cytometry, TLR4/MD-2 transfected CHO cells
Method: FIG. 41 is a graph depicting that the hu15C1 humanized antibody that includes VH 4-28 shown in SEQ ID NO:45 (“15C1 4-28/A26”) and variants thereof in which residues at chosen positions have been replaced by the corresponding amino acid in the given human germline (“15C1 4-28° C.30/A26”; “15C1 4-28° C.48/A26”; “15C1 4-28° C.67/A26” and “15C1 4-28° C.69/A26”, see TABLE 1) are capable of binding specifically to the human TLR4/MD-2 complex on the surface of transfected CHO cells. MAb binding to the TLR4/MD-2 transfected CHO cells is shown by flow cytometry using the hu15C1 antibodies or the chimeric 15C1 (“15C1 CHIM”) (described above) at the concentrations indicated. Binding is measured as a cellular Mean Fluorescence Intensity (MFI) value.

binding result [2]	binding result [4]	Binder	further results
binds	–	mu18H10 murine monoclonal antibody (antibody, mouse IgG2b, V domains shown) VH: QVQLQQSGADLVRPGALVKLSCTASGFNIKDSYIHWVKKRPEWGLEWIGWTDPENVNSIYDPRFQGKASITADTSSNTAFLQLTSLTSEDTAVYYCARGYNGVYYAMDYWGQGTTVTVSS VL: QIVLTQSPSIMSASLGEEITLTCSASSSVIYMHWYQQKSGTSPKLLIYRTYNLASGVPSRFSGSGSGTFYSLTISSVEAEDAADYYCHQWSSFPYTFGGGTKLEIKR	binding result [1]: no binding; binding result [3]: no binding (tested: 10 µg/ml)
–	binds	chimeric 18H10 MAb (antibody, V domains shown, also called 18H10chim; 18H10 chimeric antibody) VH: QVQLQQSGADLVRPGALVKLSCTASGFNIKDSYIHWVKKRPEWGLEWIGWTDPENVNSIYDPRFQGKASITADTSSNTAFLQLTSLTSEDTAVYYCARGYNGVYYAMDYWGQGTTVTVSS VL: QIVLTQSPSIMSASLGEEITLTCSASSSVIYMHWYQQKSGTSPKLLIYRTYNLASGVPSRFSGSGSGTFYSLTISSVEAEDAADYYCHQWSSFPYTFGGGTKLEIKR	–
–	binds	hu15C1 4-28 QC 30/A26 variant (antibody, V domains shown, also called 15C1 4-28° C.30/A26) VH: QVQLQESGPGLVKPSDTLSLTCAVSGYSISGGYSWHWIRQPPGKGLEWMGYIHYSGYTDFNPSLKTRITISRDTSKNQFSLKLSSVTAVDTAVYYCARKDPSDGFPYWGQGTLVTVSS VL: EIVLTQSPDFQSVTPKEKVTITCRASQSISDHLHWYQQKPDQSPKLLIKYASHAISGVPSRFSGSGSGTDFTLTINSLEAEDAATYYCQNGHSFPLTFGGGTKVEIK	–
–	binds	hu15C1 4-28 QC 48/A26 variant (antibody, V domains shown, also called 15C1 4-28° C.48/A26) VH: QVQLQESGPGLVKPSDTLSLTCAVSGYSITGGYSWHWIRQPPGKGLEWIGYIHYSGYTDFNPSLKTRITISRDTSKNQFSLKLSSVTAVDTAVYYCARKDPSDGFPYWGQGTLVTVSS VL: EIVLTQSPDFQSVTPKEKVTITCRASQSISDHLHWYQQKPDQSPKLLIKYASHAISGVPSRFSGSGSGTDFTLTINSLEAEDAATYYCQNGHSFPLTFGGGTKVEIK	–
–	binds	hu15C1 4-28 QC 67/A26 variant (antibody, V domains shown, also called 15C1 4-28° C.67/A26) VH: QVQLQESGPGLVKPSDTLSLTCAVSGYSITGGYSWHWIRQPPGKGLEWMGYIHYSGYTDFNPSLKTRVTISRDTSKNQFSLKLSSVTAVDTAVYYCARKDPSDGFPYWGQGTLVTVSS VL: EIVLTQSPDFQSVTPKEKVTITCRASQSISDHLHWYQQKPDQSPKLLIKYASHAISGVPSRFSGSGSGTDFTLTINSLEAEDAATYYCQNGHSFPLTFGGGTKVEIK	–
–	binds	hu15C1 4-28 QC 69/A26 variant (antibody, V domains shown, also called 15C1 4-28° C.69/A26) VH: QVQLQESGPGLVKPSDTLSLTCAVSGYSITGGYSWHWIRQPPGKGLEWMGYIHYSGYTDFNPSLKTRITMSRDTSKNQFSLKLSSVTAVDTAVYYCARKDPSDGFPYWGQGTLVTVSS VL: EIVLTQSPDFQSVTPKEKVTITCRASQSISDHLHWYQQKPDQSPKLLIKYASHAISGVPSRFSGSGSGTDFTLTINSLEAEDAATYYCQNGHSFPLTFGGGTKVEIK	–
binds	–	mu15C1 murine monoclonal antibody (antibody, mouse IgG1, V domains shown) VH: DVQLQESGPDLIQPSQSLSLTCTVTGYSITGGYSWHWIRQFPGNKLEWMGYIHYSGYTDFNPSLKTRISITRDTSKNQFFLQLNSVTTEDTATYYCARKDPSDGFPYWGQGTLVTVSA VL: DIVMTQSPATLSVTPGDRVSLSCRASQSISDHLHWYQQKSHESPRLLIKYASHAISGIPSRFSGSGSGTDFTLSIKSVEPEDIGVYYCQNGHSFPLTFGAGTKLELKR	–
–	binds	chimeric 15C1 MAb (antibody, V domains shown, also called 15C1 CHIM; 15C1 chimeric antibody) VH: DVQLQESGPDLIQPSQSLSLTCTVTGYSITGGYSWHWIRQFPGNKLEWMGYIHYSGYTDFNPSLKTRISITRDTSKNQFFLQLNSVTTEDTATYYCARKDPSDGFPYWGQGTLVTVSA VL: DIVMTQSPATLSVTPGDRVSLSCRASQSISDHLHWYQQKSHESPRLLIKYASHAISGIPSRFSGSGSGTDFTLSIKSVEPEDIGVYYCQNGHSFPLTFGAGTKLELKR	–
binds	–	mu7E3 murine monoclonal antibody (antibody, mouse IgG1, V domains shown) VH: QVTLKESGPGILQPSQTLSLTCSFSGFSLTTYNIGVGWIRQPSGKGLEWLAHIWWNDNIYYNTVLKSRLTFSKDTSNNQVFLKIASVDIADTATYYCIRMAEGRYDAMDYWGQGTSVTVSS VL: AIQMTQSTSSLSASLGDRVTINCRASQDITNYLNWYQQKPDGTVRLLIYYTSKLHSGAPSRFSGRGSGTDYSLTISNLEQEDIATYFCQQGNTFPWTFGGGTKLEIKR	–
–	binds	chimeric 7E3 MAb (antibody, V domains shown, also called 7E3 CHIM; 7E3 chimeric antibody) VH: QVTLKESGPGILQPSQTLSLTCSFSGFSLTTYNIGVGWIRQPSGKGLEWLAHIWWNDNIYYNTVLKSRLTFSKDTSNNQVFLKIASVDIADTATYYCIRMAEGRYDAMDYWGQGTSVTVSS VL: AIQMTQSTSSLSASLGDRVTINCRASQDITNYLNWYQQKPDGTVRLLIYYTSKLHSGAPSRFSGRGSGTDYSLTISNLEQEDIATYFCQQGNTFPWTFGGGTKLEIKR	–
binds	–	mu16G7 murine monoclonal antibody (antibody, mouse IgG1, V domains shown) VH: QVKLQESGAELMKPGASVKISCKATGYKFSDYWIEWIKQRPGHGLEWIGEILPGSGSTNYNEDFKDKATFTSDTSSNTAYMQLSSLTSEDSAVYYCAKEERAYYFGYWGQGTTVTVSS VL: DVEMTQTPLSLPVSLGDQASISCRSSQSLENSNGNTYLNWYLQKPGQSPQLLIYRVSNRFSGVLDRFSGSGSGTDFTLKISRVEAEDLGVYFCLQVTHVPPTFGAGTKLELKR	–
